From paper doi:10.1101/2024.04.30.591897 (bioRxiv, 2024) come the findings set out here.

The target of this experiment is LC3B (1-120, G120C) (human, UniProt Q9GZQ8 1-120, G120C). Briefly: pull-down.

B1: GST-ALG2^ΔN23 (domain or fragment)
chain: DQSFLWNVFQRVDKDRSGVISDTELQQALSNGTWTPFNPVTVRSIISMFDRENKAGVNFSEFTGVWKYITDWQNVFRTYDRDNSGMIDKNELKQALSGFGYRLSDQFHDILIRKFDRQGRGQIAFDDFIQGCIVLQRLTDIFRRYDTDQDGWIQVSYEQYLSMVFSIV
For B1, the binding result is recorded as “binds”.
